# Data published in patent publication US20250042995A1 (AKESO BIOPHARMA, published 2025).
# T1: human LAG3-mFc (human, UniProt P18627 23-450)
# T1 construct: also called antigen human LAG3-mFc; not shown: mFc: Fc protein fragment of mouse IgG
# T1 sequence (looked up): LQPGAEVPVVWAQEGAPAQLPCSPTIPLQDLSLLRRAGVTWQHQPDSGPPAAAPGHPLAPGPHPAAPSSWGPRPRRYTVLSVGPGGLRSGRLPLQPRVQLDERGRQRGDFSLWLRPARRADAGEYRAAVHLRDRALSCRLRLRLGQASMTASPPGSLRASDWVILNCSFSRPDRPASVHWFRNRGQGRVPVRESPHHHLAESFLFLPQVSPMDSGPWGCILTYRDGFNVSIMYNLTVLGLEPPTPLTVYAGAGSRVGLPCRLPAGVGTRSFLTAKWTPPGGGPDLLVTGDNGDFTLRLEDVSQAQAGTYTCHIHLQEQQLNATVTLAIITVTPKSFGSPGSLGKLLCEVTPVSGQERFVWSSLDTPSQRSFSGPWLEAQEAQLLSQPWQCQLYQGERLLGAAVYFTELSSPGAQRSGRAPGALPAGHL
# T2: human LAG3 (full length) expressed on cells (human, UniProt P18627 23-525)
# T2 construct: whole, on cells; also called huLAG3FL
# T2 sequence (looked up): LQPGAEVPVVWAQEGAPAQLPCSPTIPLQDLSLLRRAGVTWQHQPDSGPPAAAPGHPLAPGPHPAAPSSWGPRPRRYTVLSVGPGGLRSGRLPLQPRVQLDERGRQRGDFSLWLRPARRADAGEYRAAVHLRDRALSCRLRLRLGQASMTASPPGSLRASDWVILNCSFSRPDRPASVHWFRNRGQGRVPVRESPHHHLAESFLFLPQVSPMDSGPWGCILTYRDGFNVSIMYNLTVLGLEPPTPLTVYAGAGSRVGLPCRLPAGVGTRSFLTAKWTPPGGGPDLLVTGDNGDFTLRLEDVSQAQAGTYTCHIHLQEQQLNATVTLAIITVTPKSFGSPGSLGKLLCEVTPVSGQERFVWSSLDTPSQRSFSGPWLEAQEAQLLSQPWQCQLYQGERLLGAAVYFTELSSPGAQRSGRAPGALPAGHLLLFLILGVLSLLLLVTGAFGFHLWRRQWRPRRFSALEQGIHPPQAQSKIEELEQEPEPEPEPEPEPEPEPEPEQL
# B1: H7L9(hG4WT) (antibody, human IgG4 S228P, kappa, V domains shown)
# VH: QVQLQQWGAGLLKPSETLSLTCAVYGGSISDYYWNWIRQPPGKGLEWIGEINHRGTTNSNPSLKSRVTLSLDTSKNQFSLKLRSVTAADTAVYYCAFGYSDYEYDWFDPWGQGTLVTVSS
# VL: EIVLTQSPATLSLSPGERATLSCRASQTISSYLAWYQQKPGQAPRLLIYDGSNRATGIPARFSGSGSGTDFTLTISSLEPEDFAVYYCQQRSNWPLTFGQGTNLEIKR
# notes: Humanized anti-LAG3 IgG4 (Ig gamma-4 chain C region) with human kappa constant region
# B2: H7L10(hG4WT) (antibody, human IgG4 S228P, kappa, V domains shown)
# VH: QVQLQQWGAGLLKPSETLSLTCAVYGGSISDYYWNWIRQPPGKGLEWIGEINHRGTTNSNPSLKSRVTLSLDTSKNQFSLKLRSVTAADTAVYYCAFGYSDYEYDWFDPWGQGTLVTVSS
# VL: EIVLTQSPATLSLSPGERATLSCRASQSISSYLAWYQQKPGQAPRLLIYDGSNRATGIPARFSGSGSGTDFTLTISSLEPEDFAVYYCQQRSNWPITFGQGTNLEIKR
# notes: as for B1
# Tests used:
# human LAG3-mFc [1] = target: T1, human LAG3-mFc; test: competitive flow cytometry: antibody titrated against 3 nM LAG3-mFc binding to MHC II on Raji cells
# Method: Raji cells (medium: 1640+10% FBS) (Cell Resource Center, Shanghai Institutes for Biological Sciences, Chinese Academy of Sciences, Cat. No. TCHu 44) were added into EP tubes at 300,000 cells per sample. 1000 μL of 1% PBSA (PBS containing 1% BSA) was added. The mixture was centrifuged at 600×g for 5 min, and the supernatant was discarded. […] The mixture was mixed well and pre-incubated on ice for 30 min. 100 μL of the pre-incubated mixture of antibody and protein was added to the sample. The mixture was mixed well and incubated on ice in the dark for 1 h; 200 μL of 1% PBSA was added, and the mixture was centrifuged at 600×g for 5 min, followed by removal of the supernatant, and then washed twice; 100 μL of an APC anti mouse antibody (purchased from Biolegend, Cat. No. 405308) (diluted at a 1:400 ratio) was added, and the mixture was mixed well and incubated on ice in the dark for 40 min; 200 μL of 1% PBSA was added, and the mixture was centrifuged at 600×g for 5 min, followed by removal of the supernatant; 200 μL of Washing Buffer was added into each tube to resuspend the cells, and then the suspension was transferred to a sample loading tube for testing on a flow cytometer.
# human LAG3-mFc [2] = target: T1, human LAG3-mFc; test: ELISA, human LAG3-mFc coated 2 ug/mL
# Method: Then the ELISA plate coated with the antigen was washed once with PBST and then blocked with a PBS solution containing 1% BSA as a blocking solution at 37° C. for 2 h. After blocking, the ELISA plate was washed 3 times with PBST. The ELISA plate containing the test antibodies was incubated at 37° C. for 30 min and then washed 3 times with PBST. After washing, a working solution of an HRP-labeled goat anti-human IgG (H+L) (Jackson, Cat. No. 109-035-088) secondary antibody diluted at a ratio of 1:5000 was added, and then the plate was incubated at 37° C. for 30 min. After incubation, the plate was washed 4 times with PBST, TMB (Neogen, 308177) was added for chromogenesis in the dark for 5 min, and then a stop solution was added to terminate the chromogenic reaction. The ELISA plate was put into an ELISA plate reader immediately, and the OD value of each well in the ELISA plate was read at 450 nm. The data were analyzed and processed by SoftMax Pro 6.2.1.
# [3] = target: T2, human LAG3 (full length) expressed on …; test: flow cytometry on 293T-LAG3 cells
# Method: After centrifugation and washing several times with 1% PBSA, 100 μL of FITC goat anti-human IgG (purchased from Jackson, Cat. No. 109-095-098) (diluted at a 1:500 ratio) was added into each tube, and the mixture was incubated on ice in the dark for 40 min. After washing once with 1% PBSA, 200 μL of 1% PBSA was added to resuspend the cells. Fluorescence signals were detected with FITC channel on a flow cytometer.
Binder,EC50 (human LAG3-mFc [1]),EC50 (human LAG3-mFc [2]),EC50 [3]
B1,1.32 nM,0.142 nM,4.81 nM
B2,1.27 nM,0.157 nM,4.17 nM
